Patent US8728787B2, “Fungal laccases and uses thereof” (Academia Sinica, priority 2010, dated 2014)

Assays:
[1] = Effect of organic solvents on laccase activity; assay type: biochemical; details: ABTS
Experimental: To test the effects of various organic solvents on laccase activity, the enzymatic assay described above was carried out in the presence of one of the organic solvents shown in Table 1 below at various concentrations (1%, 10% and 25%). A T. versicolor (Fluka) laccase was used as a reference enzyme in this study. The enzyme concentration used in this study was 0.2 mg/ml. […] Further, more than 80% laccase activity remained in the presence of 10% acetonitrile or dimethyl sulfoxide. […]

[2] = 2,6-DMP oxidation (laccase kinetics, optimum temperature and pH); assay type: biochemical; details: 2,6-DMP as substrate
Experimental: (§1) The effect of temperature on laccase activity was studied using the standard enzymatic activity assay described above under various reaction temperatures (i.e., 20-80° C.). For thermal stability study, the enzyme was pre-incubated in a 50 mM citric acid buffer (pH 3.0) at 50-80° C. for 0-180 min and the residual enzymatic activity was then determined.
(§2) The effect of pH on the laccase activity was investigated at a pH range of 2.5-6.0. Four buffer systems were used in this study: 50 mM glycine-HCl buffer (pH 2.5), 50 mM citric acid buffer (pH 3.0-5.5), 50 mM sodium phosphate buffer (pH 6.0-8.0), and 50 mM glycine-NaOH buffer (pH 9.0-10). To determine the protein stability of laccase at a wide range of pH conditions, the enzyme (0.1 mg/mL in each reaction) was pre-incubated at pH 3.0-10 at 25° C. for 0-5 days and then the residual enzyme activity was determined.
(§3) Kinetic parameters Km and Vmax were determined as follows. […] The oxidation reactions of guaiacol and 2,6-DMP were monitored by determining OD436 values (ε=6,400 M^−1cm^−1) and OD468 values (ε=49,600 M^−1 cm^−1), respectively. The kinetic parameters were determined by nonlinear regression analysis (ENZFITTER software program, Elsevier-Biosoft, Cambridge, UK) using the Michaelis-Menten model.
(§4) To determine the effect of temperature on the enzyme activity, a standard enzymatic activity assay was performed under various temperatures (i.e., 30-90° C.). For thermal stability study, laccase was pre-incubated in a 50 mM citric acid buffer (pH 3.0) at 30-80° C. for 10-40 min and the residual enzymatic activity was then determined by the standard assay. See Example 1 above. Values of t1/2 were determined accordingly.
(§5) The effect of pH on laccase activity was investigated at pH 2.0-6.0, using a glycine-HCl buffer (pH 2.0-2.5) or a citric acid buffer (pH 2.5-6.0). To determine protein stability in different pH conditions, the enzyme was pre-incubated at pH 2.5-4.5 at 25° C. for 0-2 h and the residual enzyme activity was determined by the standard enzymatic assay.
(§6) Kinetic parameters were determined following conventional methods. See also Example 1 above.

[3] = Thermal stability: residual enzymatic activity after pre-incubation (t1/2); assay type: physicochemical; details: for t1/2: 50 mM citric acid buffer pH 3.0
Experimental: as §1
To test thermal stability, the enzyme was kept at various temperatures (50-80° C.) for 10-40 min and the remaining enzymatic activity was determined using the standard activity assay.
as §4

[4] = ABTS oxidation assay (laccase activity, kinetics, effect of temperature and pH); assay type: biochemical
Experimental: All chemicals used in this study were obtained from Merck (Darmstadt, Germany) or Sigma-Aldrich (St. Louis, Mo. USA). All spectrophotometric measurements were performed using the Beckman DU 640 spectrophotometer (Beckman Coulter, USA).
as §1, §2, §3, §4, §5, §6

[5] = pH stability: residual activity after pre-incubation at various pH; assay type: physicochemical
Experimental: as §2, §5

[6] = Laccase activity in culture media of recombinant P. pastoris; assay type: biochemical; details: expressed in P. pastoris X-33; 13-26 day (Lcc1-3) or 18-day (LccA) cultivation
From the text: The EasySelect™ Pichia Expression System (Invitrogen) was used in this study for expression of Lcc1, Lcc2, and Lcc3 laccases. cDNA fragments coding for these three laccases were cloned into Pichia expression vector pPICZA or pPICZaB via EcoRI and NotI restriction sites. More specifically, the lcc1 gene coding for Lcc1 precursor (including a signal peptide sequence) was cloned into pPICA to generate expression plasmid pPICZA-lcc1 and the lcc2 and lcc3 genes coding for mature Lcc2 and Lcc3 were cloned into pPICZaB to obtain expression plasmids pPICZaB-lcc2 and pPICZaB-lcc3, respectively. The three expression plasmids were introduced into P. pastoris X-33 cells following the method described in Invitrogen's protocol. Positive transformants were cultured in BMMY (1% yeast extract, 2% peptone, 100 mM potassium phosphate, pH 6.0, 1.34% yeast nitrogen base, 0.00004% biotin, and 0.5% methanol) at 25° C., 200 rpm for 12-26 days. Methanol was added to the culture media daily to reach a final concentration of 0.5%. During the cultivation, 1 ml of the supernatant was collected at various time points. The laccase activity and cell density in the supernatant were determined following the method described above or routine procedures.
pPICZ-lccA was introduced into Pichia pastoris strain X-33 host cells (Invitrogen) and positive transformants were selected for LccA expression. Briefly, a positive transformant was cultured in BMMY medium containing 1% yeast extract, 2% peptone, 1.34% yeast nitrogen base, 0.00004% biotin, and 0.5% methanol at 25° C. and 200 rpm for 20 days. Methanol was daily added to reach a final concentration of 0.5%. Within the 20-day cultivation, 1 ml of the supernatant was collected; laccase activity and cell growth were determined.

RBBR dye decoloration = details: 0.02% RBBR, 8 U enzyme, 20° C., 1 h, pH 3.0
Experimental: Dye decoloration reaction was performed by mixing a partially purified laccase broth (containing 8 U enzyme) with a 1 ml reaction buffer (50 mM citric acid solution; pH 3.0) containing 0.02% RBBR (Sigma). The mixture was incubated at 20° C. for 1 h. Dye decoloration was determined by monitoring the change in absorbance at 595 nm and the dye decoloration efficiency (%) was defined as the relative amount of dye reduced after the treatment.
The lignin degradation reaction and the dye decoloration reaction were carried out following the methods described in Example 1 above. […] See FIG. 9, pane A. The lignin degradation efficiencies were 22%-25% at 40-50° C. for 40 min and 32% at 40° C. for 60 min.

pH of maximal activity [2]: 3.5
B1: Lcc3: laccase purified from Cerrena sp. WR1, GenBank accession no. GQ899203; SEQ ID NO:3 mature, 9 precursor (protein)
chain: AIGPVADLHITDANVSPDGFTRPAVLAGGTFPGPLITGKQGDNFQINVIDELTDATMLKSTSIHWHGIFQKGTNWADGPSFVNQCPITTGNSFLYDFSVPDQTGTYWYHSHLSTQYCDGLRGALVIYDDNDPHKDLYDVDDETTVITLADWYHTQARLITGVPVSDATLINGLGRYLNGPTDAPLAVITVDQGKRYRFRLVSISCDPNFVFSIDNHSMTVIEVDAVNSQPLVVDSIQIFAAQRYSFILNANQSVGNYWIRANPNLGNTGFTNGINSAILRYNGAPVAEPNTTQTASTNPLNEVNLHPLVPTPVPGTPQPGGVDVVQNLVLGFSGGKFTINGVAFSPPTVPVLLQILSGTTTAQDLLPTGSIIELPLGKTVELTLAAGVLGGPHPFHLHGHTFHVVRSAGQTTPNYVDPILRDTVNTGAAGDNVTIRFTTDNPGPWFLHCHIDWHLEAGFAVVFAEGLNQTNAANPTPDAWNNLCDLYNALPAGDQ
modifications: Cerrena sp
Relative activity ([1]; Acetonitrile 1%, pH 3.0, 30° C.): 92.7 ± 2.5%
Relative activity ([1]; Acetonitrile 25%, pH 3.0, 30° C.): 77.5 ± 3.2%
Relative activity ([1]; Dimethyl sulfoxide 1%, pH 3.0, 30° C.): 93.5 ± 1.4%
Relative activity ([1]; Dimethyl sulfoxide 25%, pH 3.0, 30° C.): 55.8 ± 1.7%
Relative activity ([1]; Ethanol 1%, pH 3.0, 30° C.): 94.5 ± 1.8%
Relative activity ([1]; Ethanol 10%, pH 3.0, 30° C.): 93.9 ± 4.0%
Relative activity ([1]; Ethanol 25%, pH 3.0, 30° C.): 84.8 ± 3.3%
Relative activity ([1]; Methanol 1%, 50 mM citric acid buffer pH 3.0, 30° C.): 93.0 ± 1.5%
Relative activity ([1]; Methanol 10%, pH 3.0, 30° C.): 85.5 ± 0.9%
Relative activity ([1]; N,N-dimethylformamide 1%, pH 3.0, 30° C.): 100 ± 0.9%
Relative activity ([1]; N,N-dimethylformamide 10%, pH 3.0, 30° C.): 98.4 ± 0.5%
optimal temperature [2]: 70 °C
Optimum temperature ([2]; at pH 3.5): 70 (at pH 3.5) ° C.
Specific activity ([2]; optimum temperature and pH): 118.3 U/mg
t1/2 at room temperature ([3]; 25° C., 50 mM sodium phosphate buffer (pH 6.0)): 40 days
t1/2 ([3]; at 50° C.): 120 min
t1/2 ([3]; at 60° C.): 40 min
t1/2 ([3]; at 70° C.): 7.5 min
t1/2 ([3]; at 70° C., listed as Cerrena sp. WR1): 8 min
optimal temperature ([4]; ABTS as substrate): 50 °C
pH of maximal activity ([4]; ABTS as substrate): 3.0
Optimum temperature ([4]; ABTS as substrate, at pH 3.0): 50 (at pH 3.0) ° C.
Specific activity ([4]; ABTS as substrate, optimum temperature and pH): 1013.5 U/mg
specific activity of the purified laccase ([4]; at 30° C. and pH 3.0, ABTS): 2,159.6 U/mg
stability at an acidic environment ([5]; pH 3.0-5.0): less stable
activity maintained ([5]; pH 6-10, 63 hr incubation, 25° C.): about 100%
laccase activity in culture media [6]: ~3700 U/L
decoloration efficiency against RBBR (RBBR dye decoloration): 70.1%
